The values below come from patent US20110275057A1.

Experiment [1] concerns the target Protein Kinase A catalytic subunit (bos taurus) (UniProt P00517). Nature of the experiment: cell-based or functional assay.
For experiment [2] the target is unchanged. Nature of the experiment: holoenzyme formation with CS; method and reference not described.

Some results are limits rather than exact numbers.

“Protein Kinase A regulatory subunit (RIα isomer), double Cys mutant (Ser 145→Cys; Gly 235→Cys), no DNA coupled (from UniProt Q9DBC7 1-381)”: in experiment [1], the inhibitory effects (on kinase activity) relative to the wild type RS is over 80% and the kinase activity, fold increase on addition of cAMP to the holoenzyme built with the Cys mutant without DNA (FIG. 17b) turned out to be 3 fold.

In experiment [1], “RIα-DNA chimera hybridized with the complementary DNA 60 mer (ds chimera, under mechanical tension) (from UniProt Q9DBC7 1-381)” gave a kinase activity (Luciferase assay, ATP disappearance), fold increase over the ss chimera holoenzyme, batch of FIG. 17a of 2 fold; a kinase activity, increase over the ss chimera holoenzyme, second synthesis batch (FIG. 17b) of 50%; a γDNA (increase in activity by the complementary DNA, corrected for the yield; case γDNA≧γcAMP) of 2.7 fold.

For the substance “RIα-DNA chimera: PKA regulatory subunit (Ser 145→Cys; Gly 235→Cys) with a single stranded DNA 60 mer coupled to the two Cys residues (from UniProt Q9DBC7 1-381)”, in experiment [2], the decrease in associating with the CS to form the holoenzyme amounted to 20%. In addition, in experiment [1], the kinase activity, fold increase on addition of cAMP to the chimera holoenzyme, batch of FIG. 17a amounted to 3 fold; the kinase activity, fold increase on addition of cAMP to the chimera holoenzyme, second batch (FIG. 17b) stood at 2 fold; the γcAMP (case γDNA<γcAMP) came to 2.3 fold; the γcAMP (increase in activity by cAMP; case γDNA≧γcAMP) turned out to be 2.6 fold.
